Data from paper PMC4227968.

Molecular target: T1, CzrA (Bacillus subtilis, UniProt O31844 1-107)
T1 sequence: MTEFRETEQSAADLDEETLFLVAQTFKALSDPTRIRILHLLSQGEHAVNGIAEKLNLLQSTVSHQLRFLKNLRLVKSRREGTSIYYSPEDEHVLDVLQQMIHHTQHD
Experiment: fluorescence anisotropy

B1: cadA promoter operator 28 bp (dsDNA)
DNA 1: TTATATATGAGTATATGCTCATATATAT
DNA 2: ATATATATGAGCATATACTCATATATAA
B1: binds.
